Laboratory results taken from PMC8444148 (Molecular psychiatry, 2019).

B1: ATF4 leucine zipper domain (residues 314-349) (domain or fragment, UniProt Q06507 314-349, looked up)
chain: KNEALKEKADSLAKEIQYLKDLIEEVRKARGKKRVP
B4: DISC1 322-852 (predicted helical region of DISC1) (domain or fragment, UniProt Q811T9-1 322-852, looked up)
chain: ADAHGWHTLLREWEPMLQDYLLSNRRQLEVTSLILKLQKCQEKVVEDGDYDTAETLRQRLEELEQEKGRLSWALPSQQPALRSFLGYLAAQIQVALHGATQRAGSDDPEAPLEGQLRTTAQDSLPASITRRDWLIREKQRLQKEIEALQARMSALEAKEKRLSQELEEQEVLLRWPGCDLMALVAQMSPGQLQEVSKALGETLTSANQAPFQVEPPETLRSLRERTKSLNLAVRELTAQVCSGEKLCSSLRRRLSDLDTRLPALLEAKMLALSGSCFSTAKELTEEIWALSSEREGLEMFLGRLLALSSRNSRRLGIVKEDHLRCRQDLALQDAAHKTRMKANTVKCMEVLEGQLSSCRCPLLGRVWKADLETCQLLMQSLQLQEAGSSPHAEDEEQVHSTGEAAQTAALAVPRTPHPEEEKSPLQVLQEWDTHSALSPHCAAGPWKEDSHIVSAEVGEKCEAIGVKLLHLEDQLLGAMYSHDEALFQSLQGELQTVKETLQAMILQLQPTKEAGEASASYPTAGAQETEA

Tests used:
[1] = target: B4; assay: ITC
SEC-MALS = target: the molecule itself; assay: SEC-MALS
[2] = target: T1, ATF4 278-349 (basic region + leucine zipper) (UniProt Q06507 278-349); assay: ITC
T1 sequence: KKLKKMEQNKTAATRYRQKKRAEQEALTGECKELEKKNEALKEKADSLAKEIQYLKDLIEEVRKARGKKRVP

[3] = target: B1; assay: ITC
C/EBPζ (CHOP) = C/EBPζ (CHOP) (UniProt P35639 1-168); assay: ITC
C/EBPα = C/EBPα (UniProt P53566 1-359); assay: ITC
C/EBPα, sequence (P53566 whole entry): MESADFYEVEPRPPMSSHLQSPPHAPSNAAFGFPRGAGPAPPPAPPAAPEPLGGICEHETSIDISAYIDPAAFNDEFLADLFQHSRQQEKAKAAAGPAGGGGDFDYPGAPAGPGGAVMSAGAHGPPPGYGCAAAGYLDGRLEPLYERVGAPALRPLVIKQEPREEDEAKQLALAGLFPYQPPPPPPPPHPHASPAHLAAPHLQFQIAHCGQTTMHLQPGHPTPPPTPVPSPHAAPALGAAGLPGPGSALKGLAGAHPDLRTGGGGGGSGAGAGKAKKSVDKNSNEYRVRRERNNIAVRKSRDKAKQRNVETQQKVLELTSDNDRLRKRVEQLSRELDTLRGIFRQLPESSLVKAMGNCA

C/EBPζ (CHOP), sequence (P35639 whole entry): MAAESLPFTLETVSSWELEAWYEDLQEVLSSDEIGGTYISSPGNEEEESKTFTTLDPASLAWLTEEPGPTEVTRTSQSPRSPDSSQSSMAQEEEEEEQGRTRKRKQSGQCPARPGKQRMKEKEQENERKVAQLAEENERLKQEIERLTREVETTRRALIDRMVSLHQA

## B1
[1]
  Kd: ~14 nM

B2: trx tagged-ATF4-LZ (domain or fragment, UniProt Q06507 314-349, looked up)
chain: KNEALKEKADSLAKEIQYLKDLIEEVRKARGKKRVP
SEC-MALS
  stoichiometry N: 2

B3: CRE dsDNA (dsDNA)
DNA 1: GCAGATGACGTCATCTGC
DNA 2: GCAGATGACGTCATCTGC
[2]
  Kd: ~12 nM

## B4
[3]
  stoichiometry N: 1

B5: DISC1-CC (coiled coil, residues 765-835) (domain or fragment, UniProt Q811T9-1 765-835, looked up)
chain: GPWKEDSHIVSAEVGEKCEAIGVKLLHLEDQLLGAMYSHDEALFQSLQGELQTVKETLQAMILQLQPTKEA
C/EBPζ (CHOP)
  fold weaker than the DISC1/ATF4 interaction: ~2000 fold
C/EBPα
  Kd: ~11000 nM
